One test concerns the target HLA-A*02:01. In words: IEDB peptide-MHC binding, purified MHC/competitive/fluorescence; filed as Kd, often an IC50 or EC50 that approximates it; ≥ and ≤ were set here for values at or beyond the usual limits of such assays.
Test [1] has as its target HLA-A*02:03. The test is described as above.
In test [2] the target is HLA-A*02:11. The description is as above.
The target in test [3] is HLA-A*02:12. The description is as above.
The target of test [4] is HLA-A*02:16. Described as above.
Test [5] has as its target HLA-A*02:19. Described as above.
Test [6] deals with HLA-A*03:01. The description is as above.
Test [7] deals with HLA-A*24:03. The test is described as above.
A further test deals with HLA-A*26:01. Described as above.
In the next test the target is HLA-A*68:02. The test is described as above.
The target of another test is HLA-A*69:01. The description is as above.
The next test deals with HLA-B*15:01. Described as above.
A further test addresses HLA-B*15:17. Described as above. To be noted: source organism: Homo sapiens.
The target of a further test is HLA-B*18:01. Described as above.
A further test addresses HLA-B*27:03. The description is as above.
Test [8] concerns the target HLA-B*39:01. The description is as above.
The target in the next test is HLA-B*46:01. Described as above.
In the next test the target is HLA-B*57:01. The test is described as above.
A further test concerns the target HLA-B*51:01. The description is as above.
Test [9] concerns the target HLA-A*02:03. Briefly: IEDB peptide-MHC binding, purified MHC/direct/fluorescence; filed as Kd, often an IC50 or EC50 that approximates it; ≥ and ≤ were set here for values at or beyond the usual limits of such assays. Particulars: source organism: Limestone Canyon virus.
Test [10] has as its target HLA-A*02:11. Described as above. Particulars: source organism: Limestone Canyon virus.
The target of test [11] is HLA-A*02:12. The description is as above. To be noted: source organism: Limestone Canyon virus.
Test [12] deals with HLA-A*02:16. The description is as above. Particulars: source organism: Limestone Canyon virus.
The target of test [13] is HLA-A*02:19. The test is described as above. Particulars: source organism: Limestone Canyon virus.
In test [14] the target is HLA-A*03:01. Described as above. To be noted: source organism: Limestone Canyon virus.
The target in test [15] is HLA-A*24:03. The test is described as above. To be noted: source organism: Limestone Canyon virus.
The target in the next test is HLA-A*29:02. The description is as above. Particulars: source organism: Limestone Canyon virus.
For test [16], the target named is HLA-B*39:01. The test is described as above. To be noted: source organism: Orthohantavirus sinnombreense.
Setting [17] is: source organism: Listeria monocytogenes serotype 4b str. H7858.
The mark [18] stands for this setting: source organism: Orthohantavirus sinnombreense.

pKd: −log10 of the molar value.

Experimental findings from the Immune Epitope Database (IEDB) are described below.

FWAWSVLRV: the negative-log Kd (pKd) with HLA-A*02:01 (source organism: Homo sapiens), with HLA-A*02:03 [1] (source organism: Homo sapiens), with HLA-A*02:11 [2] (source organism: Homo sapiens), in the test with HLA-A*02:12 [3] (source organism: Homo sapiens), with HLA-A*02:16 [4] (source organism: Homo sapiens) and with HLA-A*02:19 [5] (source organism: Homo sapiens) was at most 4.70 in each case. For the same sequence, the pKd with HLA-A*03:01 [6] (source organism: Homo sapiens), in the test with HLA-A*24:03 [7] (source organism: Homo sapiens), with HLA-A*26:01 (source organism: Homo sapiens), with HLA-A*68:02 (source organism: Homo sapiens), with HLA-A*69:01 (source organism: Homo sapiens) and in the test with HLA-B*15:01 (source organism: Homo sapiens) was at most 4.70 in each case. Moreover, the negative logarithm of the Kd (pKd) in the test with HLA-B*15:17, with HLA-B*18:01 (source organism: Homo sapiens), in the test with HLA-B*27:03 (source organism: Homo sapiens), in the test with HLA-B*39:01 [8] (source organism: Homo sapiens), with HLA-B*46:01 (source organism: Homo sapiens) and in the test with HLA-B*57:01 (source organism: Homo sapiens) was at most 4.70 throughout.

With ITWPRTRHW, the pKd in the test with HLA-A*02:01 (setting [17]), in the test with HLA-A*02:03 [1] (setting [17]), with HLA-A*02:11 [2] (setting [17]), in the test with HLA-A*02:12 [3] (setting [17]), in the test with HLA-A*02:16 [4] (setting [17]) and with HLA-A*02:19 [5] (setting [17]) was at most 4.70 throughout. Also, the pKd in the test with HLA-A*03:01 [6] (setting [17]), with HLA-A*24:03 [7] (setting [17]), in the test with HLA-A*26:01 (setting [17]), with HLA-A*68:02 (setting [17]), with HLA-A*69:01 (setting [17]) and with HLA-B*15:01 (setting [17]) was at most 4.70 each time. The pKd (in general, the Kd on a negative log10 scale, so that one unit is a factor of ten) was at most 4.70 in the test with HLA-B*18:01 (setting [17]); at most 4.70 with HLA-B*27:03 (setting [17]); at most 4.70 with HLA-B*39:01 [8] (setting [17]); at most 4.70 with HLA-B*46:01 (setting [17]); at most 4.70 with HLA-B*51:01 (setting [17]); 7.48 with HLA-B*57:01 (setting [17]).

YKSRCYVGL: the negative-log Kd (pKd) with HLA-A*02:03 [9], with HLA-A*02:11 [10], with HLA-A*02:12 [11], with HLA-A*02:16 [12], in the test with HLA-A*02:19 [13] and in the test with HLA-A*03:01 [14] was at most 4.70 throughout. Moreover, the pKd with HLA-A*24:03 [15] was at most 4.70; with HLA-A*29:02, at most 4.70; in the test with HLA-B*39:01 [16], 6.53; in the test with HLA-A*02:01 (setting [18]) it was at most 4.70; with HLA-A*26:01 (setting [18]) it was at most 4.70; with HLA-B*15:01 (setting [18]), at most 4.70. In addition, the pKd in the test with HLA-B*18:01 (setting [18]), in the test with HLA-B*27:03 (setting [18]), with HLA-B*46:01 (setting [18]), with HLA-B*51:01 (setting [18]) and with HLA-B*57:01 (setting [18]) was at most 4.70 throughout.
